Measured values as given in patent US20090062514A1.
Several values for one entry are separate records, joined by “and”; a condition that tells them apart may be missing. Equal values may be shown once.

Target: human IgG (Sigma 14506) (human)
Test: co-precipitation of human IgG with viral particles by centrifugation; SDS-PAGE of pellets and supernatants

What does the source list for “recombinant viral particles displaying protein A on their surface (TVCV coat protein-protein A fusion, domains E and D of protein A)”?
binding capacity (mg IgG/mg of viral particles): 2; CP-protein A fusion molecules per bound IgG molecule (scale: CP-protein A fusion molecules per IgG molecule): 3 and 5
